The source of these data is patent US20140322717.

For the data set, the system named is TspRI (Thermus sp.?). Description: cleavage_in_vitro. The conditions noted are these: destruction of wild type PCR product during qPCR, 85 C denaturation.

Turning to “AGACATACTTATTGACTCTAAGAGGAAAGATGAAGTACTATGTTTTAAAGAATATTATATTACAGAATTATAGAAATTAGATCTCTTACCTAAACTCTTCATAAAGCTTGCTCTGATAGGAAAATGAGATCTACTGTTTTCCTTTACTTACTACACCTCAGATATATTTCTTCATGAAGACCTCACAGTAAAAATAGGTGATTTTGGTCTAGCTACAGTGAAATCTCGATGGAGTGAGTCCCATCAGTTTGAACAGTTGTCTGGATCCATTTTGTGGATGGTAAGAATTGAGGCTATTTTTCCACTGATTAAATTTTTGGCCCTGAGATGCTGCTGAGTTACTAGAAAGTCATTGAAGGTCTCAACTATAGTATTTTCATAGTTCCCAGT (double strand) [B-raf synthetic wild type template]”, the activity is more than 99%.
